Measured values: publication PMC4449185

Columns and labels:
[1] = pseudovirus neutralization (S4 Table); conditions: glycan lost; control: JR-FL parent
[2] = pseudovirus neutralization, global sensitivity (≥2 of 6 non-nAbs); conditions: glycan lost
[3] = TZM-bl pseudovirus neutralization ID50; conditions: glycan lost

Substance: JR-FL Env (gp160∆CT): N160A
- other: neutralisation sensitivity [1]: no change

Substance: JR-CSF Env: N197D
- other: neutralisation sensitivity ([2]; control: JR-CSF parent): no change
- other: neutralisation sensitivity ([3]; control: JR-CSF parent): increases

Substance: ADA Env: N197D
- other: neutralisation sensitivity ([2]; control: ADA parent): no change

Substance: JR-FL Env (gp160∆CT): N332Q
- other: neutralisation sensitivity [1]: no change

Substance: PVO.4 Env: N197D
- other: neutralisation sensitivity ([2]; control: PVO.4 parent): no change
- other: neutralisation sensitivity ([3]; control: PVO.4 parent): no change
